Where a chain is given by its changes, count along the chain named. Numbers in names are those of the source.
T1: TNFR1 (Homo sapiens, UniProt P19438)
T1 chain: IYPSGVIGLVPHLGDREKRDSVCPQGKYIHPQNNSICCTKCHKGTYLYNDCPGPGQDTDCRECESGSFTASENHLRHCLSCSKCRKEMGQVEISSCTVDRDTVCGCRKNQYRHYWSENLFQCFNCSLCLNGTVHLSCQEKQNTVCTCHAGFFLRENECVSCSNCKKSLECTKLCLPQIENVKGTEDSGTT

B1: E92G (designed binder)
chain: SMEEEVEKAAKEYEKKKKEAIEKHLEKLKAKDKEAAERFLKELEEAAKEYAKDEAKTMSEEEAKRRAKKYKEKVLLSELSEEEQKEIKEAEGKLVRTILKYVEEAAK
B2: R65M (designed binder)
chain: B1 chain with R65M, G92E
B3: E5M (designed binder)
chain: B1 chain with E5M, G92E
B4: E72W (designed binder)
chain: B1 chain with E72W, G92E
B5: E44S (designed binder)
chain: B1 chain with E44S, G92E
B6: K52I (designed binder)
chain: B1 chain with K52I, G92E
B7: E86L (designed binder)
chain: B1 chain with E86L, G92E
B8: E92W (designed binder)
chain: B1 chain with G92W
B9: E37L (designed binder)
chain: B1 chain with E37L, G92E
B10: E14L (designed binder)
chain: B1 chain with E14L, G92E
B11: E81M (designed binder)
chain: B1 chain with E81M, G92E
B12: K11F (designed binder)
chain: B1 chain with K11F, G92E
B13: M58N (designed binder)
chain: B1 chain with M58N, G92E
B14: E37H (designed binder)
chain: B1 chain with E37H, G92E
B15: L43H (designed binder)
chain: B1 chain with L43H, G92E
B16: I87V (designed binder)
chain: B1 chain with I87V, G92E
B17: E7P (designed binder)
chain: B1 chain with E7P, G92E
B18: S80L (designed binder)
chain: B1 chain with S80L, G92E
B19: K41L (designed binder)
chain: B1 chain with K41L, G92E
B20: A9G (designed binder)
chain: B1 chain with A9G, G92E
B21: E42S (designed binder)
chain: B1 chain with E42S, G92E
B22: Y101S (designed binder)
chain: B1 chain with G92E, Y101S
B23: R38C (designed binder)
chain: B1 chain with R38C, G92E
B24: A67L (designed binder)
chain: B1 chain with A67L, G92E
B25: L76Q (designed binder)
chain: B1 chain with L76Q, G92E
B26: A51H (designed binder)
chain: B1 chain with A51H, G92E
B27: L25I (designed binder)
chain: B1 chain with L25I, G92E
B28: K107Q (designed binder)
chain: B1 chain with G92E, K107Q
B29: E92R (designed binder)
chain: B1 chain with G92R
B30: E3G (designed binder)
chain: B1 chain with E3G, G92E
B31: Q84C (designed binder)
chain: B1 chain with Q84C, G92E
B32: E4Q (designed binder)
chain: B1 chain with E4Q, G92E
B33: A51V (designed binder)
chain: B1 chain with A51V, G92E
B34: E83W (designed binder)
chain: B1 chain with E83W, G92E
B35: K15N (designed binder)
chain: B1 chain with K15N, G92E
B36: R65E (designed binder)
chain: B1 chain with R65E, G92E
B37: R65D (designed binder)
chain: B1 chain with R65D, G92E
B38: L75P (designed binder)
chain: B1 chain with L75P, G92E
B39: H24K (designed binder)
chain: B1 chain with H24K, G92E
B40: L76F (designed binder)
chain: B1 chain with L76F, G92E
B41: E14Y (designed binder)
chain: B1 chain with E14Y, G92E
B42: K100D (designed binder)
chain: B1 chain with G92E, K100D
B43: Q84H (designed binder)
chain: B1 chain with Q84H, G92E

Target: T1, TNFR1
Experiment: yeast display SC50

| apparent Kd (screen) | Binder |
| --- | --- |
| 1.54 nM | B1 |
| 0.956 nM | B2 |
| 0.446 nM | B3 |
| 0.446 nM | B4 |
| 1.86 nM | B5 |
| 0.446 nM | B6 |
| 1.4 nM | B7 |
| 10.4 nM | B8 |
| 0.869 nM | B9 |
| 7.07 nM | B10 |
| 0.539 nM | B11 |
| 0.49 nM | B12 |
| 13.8 nM | B13 |
| 0.446 nM | B14 |
| 3.63 nM | B15 |
| 3 nM | B16 |
| 1.4 nM | B17 |
| 0.539 nM | B18 |
| 0.446 nM | B19 |
| 1.05 nM | B20 |
| 7.78 nM | B21 |
| 0.956 nM | B22 |

| apparent Kd (screen) | Binder |
| --- | --- |
| 2.25 nM | B23 |
| 7.78 nM | B24 |
| 1.86 nM | B25 |
| 0.49 nM | B26 |
| 0.956 nM | B27 |
| 1.16 nM | B28 |
| 11.4 nM | B29 |
| 3 nM | B30 |
| 4.83 nM | B31 |
| 0.446 nM | B32 |
| 9.41 nM | B33 |
| 2.25 nM | B34 |
| 0.539 nM | B35 |
| 1.54 nM | B36 |
| 0.405 nM | B37 |
| 3.99 nM | B38 |
| 2.73 nM | B39 |
| 0.539 nM | B40 |
| 10.4 nM | B41 |
| 2.48 nM | B42 |
| 3.3 nM | B43 |

From article PMC12416549 (2024)
